This is an account of results in patent US6492116, “Assay for identifying inhibitors of the interaction between proteins p53 and dm2” (Cancer Research Campain Technology Ltd.).

The target in this data set is p53D30 (human p53 residues 1-362) (Homo sapiens, UniProt P04637 SEQ:1-362). Kind of data set: EMSA; 50 mM Tris-HCl, 50 mM NaCl, 5% glycerol, 0.1% Triton X-100, 10 mM DTT, 50 ug/ml poly(dI-dC), pH 7.6, 22 C; monoclonal antibodies included as mentioned; gel result not shown in the text. The following applies: chain copies: 4; label: 33P 5' end; HindIII-compatible 5' overhangs. As to the method: A 20 μl reaction volume containing 50 mM Tris. HCI, 50 mM NaCI, 5% (v/v) glycerol, 0.1% (v/v) Triton X-100, 10 mM DTT and 50 μg/ml polydeoxyinosinic-deoxycytidylic acid–pH=7.6 (binding buffer) are incubated for 30 min at 22° C. in the presence of the indicated amounts of p53D30, of radiolabelled oligonucleotides and of the mentioned monoclonal antibodies. Reactions are loaded onto a native 4% polyacrylamide gel containing 0.5×Tris.HCI–boric acid–pH=8.0 which had undergone pre-electrophoresis at 200 V for 45 min at 4 ° C. Electrophoresis is continued at 200 V from 90 to 120 min at 4° C. Gels are dried prior exposure to X-ray film (Amersham Hyperfilm-MP).
Chain of p53D30 (human p53 residues 1-362) (P04637 1-362): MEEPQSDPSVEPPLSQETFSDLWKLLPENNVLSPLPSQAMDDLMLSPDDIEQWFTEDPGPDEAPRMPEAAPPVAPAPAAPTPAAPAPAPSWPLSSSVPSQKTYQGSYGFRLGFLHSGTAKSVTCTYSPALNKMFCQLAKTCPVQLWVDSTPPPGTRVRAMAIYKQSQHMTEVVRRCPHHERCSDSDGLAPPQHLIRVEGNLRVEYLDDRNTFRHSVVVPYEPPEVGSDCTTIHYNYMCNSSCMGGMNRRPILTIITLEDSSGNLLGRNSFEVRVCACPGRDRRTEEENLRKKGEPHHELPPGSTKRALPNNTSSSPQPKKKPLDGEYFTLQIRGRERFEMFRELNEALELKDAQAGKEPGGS
Background: In EMSA bound probe runs differently from free probe, usually more slowly.

B1: p53 consensus site oligonucleotide I/II (dsDNA)
DNA 1: AGCTTAGACATGCCTAGACATGCCTA
DNA 2: AGCTTAGGCATGTCTAGGCATGTCTA
As for B1, the binding result is “binds”.
